This note sets out measurements from US20200270339A1 (CEPHALON, published 2020).

The target in assay [1] is T1, IL-15 E98A co-expressed with IL-15Rα (human, UniProt P40933 49-162).
T1 construct: Purified alanine scan construct, expressed in EXPI293F cells with human IL-15Rα
The assay is described as follows: SPR. The protocol: (§1) All interactions were measured at 25° C. and the data collection rate was set to 10 Hz. Data from FC2-1 was used for analysis. The resultant sensorgrams were analysed by creating two custom report points, each calculated for a 5 s window starting either 10 s after injection of the sample (‘early binding’) or 10 s before the end of dissociation (‘late binding’). These values were subtracted from the values for the untransfected control and a relative dissociation rate was estimated by first, taking a ratio of these two custom report points (‘late binding’/‘early binding’) and then, taking the resultant values as a fraction of the value calculated for wild-type human IL-15 complexed with the IL-15 Receptor-alpha (data not shown).
(§2) A Protein A Sensor Chip (GE Healthcare) was used to capture Antibody 70a onto the second flow cell to a capture level of 150-200 RU. Purified IL-15 alanine scan constructs were diluted to 10 μg/mL in HBS-EP+ and then a 2-fold dilution series was made. Binding was measured by injection of 45 μL of each dilution at a flow rate of 30 μL/min across both flow cells and allowing 600 s of dissociation time. The chip surface was regenerated between cycles with a 10 sec pulse of 50 mM sodium hydroxide. The running buffer used was HBS-EP+ (GE Healthcare) All interactions were measured at 25° C. and the data collection rate was set to 10 Hz. Data from Fc2-1 was used for analysis and generated sensorgrams were fitted using a 1:1 Langmuir equation (using local Rmax fitting) to determine KD. […] Antibody 70a had low binding to mutated IL-15 with a Q108A substitution.
(Surface plasmon resonance follows binding to a sensor surface in real time, without labels.)

For assay [2], the target named is T2, IL-15 Q101A co-expressed with IL-15Rα (human, UniProt P40933 49-162).
T2 construct: Purified alanine scan construct, expressed in EXPI293F cells with human IL-15Rα
The assay is described as follows: SPR. The protocol: as §1, §2

Assay [3] deals with T3, IL-15 H105A co-expressed with IL-15Rα (human, UniProt P40933 49-162).
T3 construct: Purified alanine scan construct, expressed in EXPI293F cells with human IL-15Rα
Put plainly: SPR. The protocol:
as §1, §2

For assay [4], the target named is T4, human IL-15 complexed with the IL-15 Receptor-alpha (human, UniProt P40933 49-162). The assay is described as follows: cell-based or functional assay.
Target sequence in this assay (P40933 49-162 limits assumed, one chain of several): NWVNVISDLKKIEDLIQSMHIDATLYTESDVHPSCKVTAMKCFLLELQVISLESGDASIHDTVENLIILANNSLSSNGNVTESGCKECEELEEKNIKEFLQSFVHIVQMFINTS
Assay [5] has as its target T4, human IL-15 complexed with the IL-15 …. The assay is described as follows: SPR.
Target sequence in this assay (P40933 49-162 limits assumed, one chain of several): as above
Another assay has as its target IL-2 (UniProt P60568 21-153). Put plainly: SPR, antibody captured on Protein A chip.
Assay [6] concerns the target T5, uncomplexed IL-15 Receptor α (human).
T5 construct: also called IL-15Rα; IL15Rα
T5 chain: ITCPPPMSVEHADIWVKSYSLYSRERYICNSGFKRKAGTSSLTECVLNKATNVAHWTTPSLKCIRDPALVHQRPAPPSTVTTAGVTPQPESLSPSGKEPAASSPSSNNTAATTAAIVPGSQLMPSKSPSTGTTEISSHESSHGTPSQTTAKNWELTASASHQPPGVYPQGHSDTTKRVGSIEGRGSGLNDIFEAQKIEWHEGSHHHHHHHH
Put plainly: SPR, antibody captured on Protein A chip.

In a further assay the target is T6, IL-4 (UniProt P05112 25-153).
T6 sequence (looked up): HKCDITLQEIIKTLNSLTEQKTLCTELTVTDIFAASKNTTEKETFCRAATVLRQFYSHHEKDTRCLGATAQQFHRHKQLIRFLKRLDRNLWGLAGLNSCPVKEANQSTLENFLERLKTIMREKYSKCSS
The assay is described as follows: SPR, antibody captured on Protein A chip.

Another assay has as its target IL-21 (UniProt Q9HBE4 30-162, limits assumed). Put plainly: SPR, antibody captured on Protein A chip.
The target of a further assay is T7, IL-7 (UniProt P13232 26-177).
T7 sequence (looked up): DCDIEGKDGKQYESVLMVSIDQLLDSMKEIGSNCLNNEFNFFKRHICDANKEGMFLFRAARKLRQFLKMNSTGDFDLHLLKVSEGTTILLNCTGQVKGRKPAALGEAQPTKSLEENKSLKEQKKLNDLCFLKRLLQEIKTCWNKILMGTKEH
The assay is described as follows: SPR, antibody captured on Protein A chip.

For a further assay, the target named is IL-9 (UniProt P15248 19-144). The assay is described as follows: SPR, antibody captured on Protein A chip.
In assay [7] the target is T4, human IL-15 complexed with the IL-15 …. The assay is described as follows: cell-based or functional assay. The source holds these as a separate data set.
For assay [8] the target is unchanged. Put plainly: subsequent studies, method not restated; subsequent studies; average; analyte form and method not restated.
Target sequence in this assay (P40933 49-162 limits assumed, one chain of several): as the sequence (P40933 49-162 limits assumed, one chain of several) above
Assay [9] has the same target. The assay is described as follows: cell-based or functional assay. The source holds these as a separate data set.
Target sequence in this assay (P40933 49-162 limits assumed, one chain of several): as the sequence (P40933 49-162 limits assumed, one chain of several) above
Assay [10] has the same target. Put plainly: SPR, antibody captured on Protein A chip, IL-15 complex as analyte. Here is the method: Binding of Antibody 70 variants to human IL-15 complexed with the IL-15 Receptor-alpha were assessed using surface plasmon resonance on a BIACORE® T200 (GE Healthcare) system using a Protein A Sensor Chip (GE Healthcare). Antibodies were captured onto the second flow cell to a level of 150-200 RU. Purified cytokines were diluted to 10 μg/mL in HBS-EP+. Binding was measured by injection of […] of each cytokine at a flow rate of […] across both flow cells and allowing 180 s of dissociation time. The chip surface was regenerated between cycles with two 10 sec pulses of 50 mM sodium hydroxide. The running buffer used was HBS-EP+ (GE Healthcare) and all interactions were measured at 25° C. and data collection rate set to 10 Hz.
A summary of the surface plasmon resonance data is shown on FIG. 36. The affinity can be measured by the KD (the equilibrium dissociation constant between the antibody and its antigen). […] The large difference in KD between variants of Antibody 70 and AMG714 is driven by the dissociation rate (kd). IL-15 dissociates from AMG714 ten times faster than the rate of dissociation of IL-15 from Antibody 70 variants. […] This was tested in a cell based potency assay.
Target sequence in this assay (P40933 49-162 limits assumed, one chain of several): as the sequence (P40933 49-162 limits assumed, one chain of several) above

The target in assay [11] is T5, uncomplexed IL-15 Receptor α. Put plainly: ELISA and cELISA, hybridoma supernatant. The protocol:
Microtiter plates were coated with purified IL-15 or purified IL-15Rα or purified IL-15 complex. Briefly, microtiter plates were coated with purified protein in PBS and then blocked with irrelevant proteins such as bovine serum albumin (BSA) diluted in PBS. Dilutions of hybridoma supernatants were added to each well and incubated for 1-2 hours at 37° C. The plates were washed with PBS/TWEEN® 20, and then incubated with a goat-anti-human IgG Fc-specific polyclonal reagent conjugated to a suitable detection reagent […] for 1 hour at 37° C. […] Hybridomas that produced antibodies showing positive reactivity with the IL-15 complex but not with IL-15Rα were selected for further characterization.
cELISA was carried out as follows. HEK cells were transfected with DNA encoding IL-15 and IL-15Rα such that they expressed the IL-15 complex. The transfected HEK cells were coated onto an ELISA plate and dilutions of hybridoma supernatants was applied to the plate so that it could bind to the IL-15 complex expressed on the surface of the cells. The assay was repeated using HEK cells transfected with IL-15Rα such that they expressed uncomplexed IL-15Rα. The advantage of using cELISA in addition to classical ELISA is that a native protein complex is used to screen the antibodies.

Assay [12] addresses T4, human IL-15 complexed with the IL-15 …. The assay is described as follows: SPR, run 5.
Target sequence in this assay (P40933 49-162 limits assumed, one chain of several): as the sequence (P40933 49-162 limits assumed, one chain of several) above
Assay [13] shares this target. The assay is described as follows: SPR, run 2.
Assay [14] has the same target. Put plainly: SPR, run 6.
Assay [15] has the same target. The assay is described as follows: SPR, run 4.

Several values for one entry are separate records, joined by “and”; a condition that tells them apart may be missing. Equal values may be shown once.

Chain of IL-2 (P60568 21-153 limits assumed): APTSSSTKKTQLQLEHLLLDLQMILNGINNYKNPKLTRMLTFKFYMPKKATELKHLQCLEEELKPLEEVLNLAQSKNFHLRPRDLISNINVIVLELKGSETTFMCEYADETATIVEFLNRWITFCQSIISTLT
Chain of IL-21 (Q9HBE4 30-162 limits assumed): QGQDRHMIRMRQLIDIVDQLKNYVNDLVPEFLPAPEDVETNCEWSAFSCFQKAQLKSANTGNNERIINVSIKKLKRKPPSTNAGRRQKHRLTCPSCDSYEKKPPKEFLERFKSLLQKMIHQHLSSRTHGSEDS
Chain of IL-9 (P15248 19-144 limits assumed): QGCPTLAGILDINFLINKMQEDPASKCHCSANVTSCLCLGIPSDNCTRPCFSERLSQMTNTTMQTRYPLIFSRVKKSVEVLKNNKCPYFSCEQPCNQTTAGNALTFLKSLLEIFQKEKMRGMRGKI
T1 sequence (P40933 49-162 E146A limits assumed): as the sequence (P40933 49-162 limits assumed, one chain of several) above, with E98A counted along it
T3 sequence (P40933 49-162 H153A limits assumed): as the sequence (P40933 49-162 limits assumed, one chain of several) above, with H105A counted along it
T2 sequence (P40933 49-162 Q149A limits assumed): as the sequence (P40933 49-162 limits assumed, one chain of several) above, with Q101A counted along it

B1: Antibody 70a (antibody, human IgG1, lambda)
heavy: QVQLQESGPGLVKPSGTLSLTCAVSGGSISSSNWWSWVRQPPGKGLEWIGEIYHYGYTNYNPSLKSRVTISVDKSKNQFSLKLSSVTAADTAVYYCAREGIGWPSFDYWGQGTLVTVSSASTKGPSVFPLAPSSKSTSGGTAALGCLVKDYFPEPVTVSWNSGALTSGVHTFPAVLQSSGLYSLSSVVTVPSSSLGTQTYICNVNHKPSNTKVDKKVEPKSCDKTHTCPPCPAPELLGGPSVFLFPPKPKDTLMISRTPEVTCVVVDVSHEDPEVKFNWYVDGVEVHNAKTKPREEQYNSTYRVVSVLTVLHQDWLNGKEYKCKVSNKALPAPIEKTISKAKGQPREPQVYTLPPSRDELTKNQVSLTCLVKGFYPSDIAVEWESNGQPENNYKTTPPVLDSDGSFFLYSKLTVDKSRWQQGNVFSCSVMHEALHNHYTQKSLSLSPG
light: SSELTQDPAASVALGQTVRITCQGDTLRSYYASWYQQKPGQAPILVIYGKNNRPSGIPDRFSGSSSGNTASLTITGAQAEDEADYYCNSRDLSGKNLVFGGGTKLTVLGQPKAAPSVTLFPPSSEELQANKATLVCLISDFYPGAVTVAWKADSSPVKAGVETTTPSKQSNNKYAASSYLSLTPEQWKSHRSYSCQVTHEGSTVEKTVAPTECS
notes: Heavy S54Y + N56Y + I82aS, light N30S + S93L
Consider B1, for which the binding result in assay [1] is listed as “binds”; in assay [2], “binds”; in [3], “binds”; in the assay with IL-2, “no binding (tested: 10 µg/mL)”; in [6], “no binding (tested: 10 µg/mL)”; with IL-4 it was “no binding (tested: 10 µg/mL)”. Besides, the binding result in the assay with IL-21, in the assay with IL-7 and in the assay with IL-9 was “no binding (tested: 10 µg/mL)” each time. Also, the “Max IC50 (pM), NK-92 proliferation assay” value in assay [4] stood at 22 pM. Moreover, the “Mean IC50 (pM), NK-92 proliferation assay” value in [4] was 14.7 pM. Further, in assay [4], the “Min IC50 (pM), NK-92 proliferation assay” value is 10.2 pM. In [5], the Kd was 0.133 nM and 0.149 nM. Further, the off-rate constant (koff) in [5] was 3.47e-05 s⁻¹ and 3.75e-05 s⁻¹. The on-rate (kon) in [5] is 252000 M⁻¹ s⁻¹ and 261000 M⁻¹ s⁻¹. For the same molecule, the “IC 50 (NK-92) in pM” value in [7] was found to be 18.2 pM.

B2: Antibody 70f (antibody, human IgG4 S228P, lambda)
heavy: QVQLQESGPGLVKPSGTLSLTCAVSGGSISSSNWWSWVRQPPGKGLEWIGEIYHYGYTNYNPSLKSRVTISVDKSKNQFSLKLSSVTAADTAVYYCAREGIGWPSFDYWGQGTLVTVSSASTKGPSVFPLAPCSRSTSESTAALGCLVKDYFPEPVTVSWNSGALTSGVHTFPAVLQSSGLYSLSSVVTVPSSSLGTKTYTCNVDHKPSNTKVDKRVESKYGPPCPPCPAPEFLGGPSVFLFPPKPKDTLYITREPEVTCVVVDVSQEDPEVQFNWYVDGVEVHNAKTKPREEQFNSTYRVVSVLTVLHQDWLNGKEYKCKVSNKGLPSSIEKTISKAKGQPREPQVYTLPPSQEEMTKNQVSLTCLVKGFYPSDIAVEWESNGQPENNYKTTPPVLDSDGSFFLYSRLTVDKSRWQEGNVFSCSVMHEALHNHYTQKSLSLSLG
light: B1 light
In the case of B2, the Kd in assay [8] is 0.43 nM; in assay [5] it was 0.171 nM and 0.173 nM. The “Max IC50 (pM), NK-92 proliferation assay” value in assay [4] came out at 29.8 pM. The “Mean IC50 (pM), NK-92 proliferation assay” value in assay [4] is 14.6 pM. In addition, the “Min IC50 (pM), NK-92 proliferation assay” value in assay [4] amounted to 7.3 pM. Also, the off-rate constant (koff) in [5] is 4.44e-05 s⁻¹ and 4.32e-05 s⁻¹. Also, in assay [5], the kon was 249000 M⁻¹ s⁻¹ and 260000 M⁻¹ s⁻¹. Also, the binding result (in the assay with IL-2; in assay [6]; with IL-4; with IL-21; with IL-7; in the assay with IL-9) was “no binding (tested: 10 µg/mL)” in each case.

B3: Antibody 4 (antibody, V domains shown, not shown: a dimerising Fc or GST)
VH: QVQLQESGPGLVKPSGTLSLTCAVSGGSISSSNWWSWVRQPPGKGLEWIGEIYHSGNTNYNPSLKSRVTISVDKSKNQFSLKLISVTAADTAVYYCAREGIGWPSFDYWGQGTLVTVSS
VL: SSELTQDPAASVALGQTVRITCQGDTLRNYYASWYQQKPGQAPILVIYGKNNRPSGIPDRFSGSSSGNTASLTITGAQAEDEADYYCNSRDSSGKNLVFGGGTKLTVLG
notes: from section 3.4 on as recombinant human IgG1 lambda; also called parent antibody; parental antibody
For B3, the “IC50, NK-92 proliferation assay” value in assay [9] is 0.1 nM. Besides, the equilibrium dissociation constant (Kd) is 0.629 nM in assay [10]; 0.979 nM in [12]; 0.982 nM in assay [13]; 0.63 nM and 0.628 nM in assay [5]; 1.07 nM in assay [14]; 1.28 nM in assay [15]. In addition, the binding result in assay [11] is “no binding”. Moreover, the koff in [12] was 0.000166 s⁻¹; in [13] it was 0.000138 s⁻¹; in [5], 9.43e-05 s⁻¹ and 9.31e-05 s⁻¹; in [14], 0.00016 s⁻¹; in assay [15] it was 0.000182 s⁻¹. In addition, the kon in assay [12] is 170000 M⁻¹ s⁻¹; in assay [13] it was 141000 M⁻¹ s⁻¹; in assay [5] it was 148000 M⁻¹ s⁻¹ and 150000 M⁻¹ s⁻¹; in [14], 150000 M⁻¹ s⁻¹; in assay [15], 142000 M⁻¹ s⁻¹. The “IC 50 (NK-92) in pM” value in assay [7] amounted to 148 pM.

The Kd is the constant that tells how readily two partners part at equilibrium. A higher Kd goes with lower affinity. In general, koff refers to a measure of how fast the partners let go of each other. Read a low koff as a long-lived complex. In general, kon refers to a measure of how fast the partners come together. Low readings indicate slow association, high ones fast association.
